Laboratory results from patent US20250002610A1 (Genmab, published 2025).

Tests used:
[1] = target: T1, human FAPα (Fibroblast activation protein alpha), cell surface expressed (human, UniProt Q12884 1-760); assay: flow cytometry, CAFs, n = 1
T1 construct: Endogenous on human lung fibroblasts and CAFs
T1 sequence: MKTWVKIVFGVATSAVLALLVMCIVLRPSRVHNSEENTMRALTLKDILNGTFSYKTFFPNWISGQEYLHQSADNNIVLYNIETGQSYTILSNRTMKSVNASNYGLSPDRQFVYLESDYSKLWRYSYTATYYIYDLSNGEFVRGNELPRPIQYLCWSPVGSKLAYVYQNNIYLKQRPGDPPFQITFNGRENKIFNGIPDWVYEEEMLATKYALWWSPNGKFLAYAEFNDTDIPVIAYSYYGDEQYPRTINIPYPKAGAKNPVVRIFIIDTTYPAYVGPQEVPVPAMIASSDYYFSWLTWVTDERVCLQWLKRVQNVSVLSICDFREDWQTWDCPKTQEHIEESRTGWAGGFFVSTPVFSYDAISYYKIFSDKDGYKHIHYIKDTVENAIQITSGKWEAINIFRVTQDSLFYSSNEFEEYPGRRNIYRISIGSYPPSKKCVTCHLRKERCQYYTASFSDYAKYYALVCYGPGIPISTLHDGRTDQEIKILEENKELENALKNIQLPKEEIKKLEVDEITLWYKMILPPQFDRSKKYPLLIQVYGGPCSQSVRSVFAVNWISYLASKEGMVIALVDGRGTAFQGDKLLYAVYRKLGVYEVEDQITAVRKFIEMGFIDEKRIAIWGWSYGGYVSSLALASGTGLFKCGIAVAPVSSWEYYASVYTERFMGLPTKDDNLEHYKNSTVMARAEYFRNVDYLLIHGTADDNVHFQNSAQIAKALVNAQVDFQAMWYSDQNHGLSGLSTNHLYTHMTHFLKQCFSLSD
Protocol: (§1) Binding of bispecific or monoclonal antibodies carrying the anti-FAPα arm derived from IgG1-FAPα-FERL (BisG1-FAPα-FERL/DR4-FERR, BisG1-FAPα-FERL/b12-FERR, and IgG1-FAPα-FERL) to cell surface expressed human FAPα was analyzed by flow cytometry using human lung fibroblasts and CAFs, which endogenously express FAPα. BisG1-b12-FERL/b12-FERR was used as negative control.
(§2) Human lung fibroblasts and CAFs (50,000 cells/well) were seeded in 96-Well round bottom plates (Greiner Bio-one, Cat #650101). Antibody dilutions were prepared using fluorescence-activated cell sorting (FACS) buffer, consisting of phosphate buffer saline (PBS, Lonza, Cat #BE17-517Q)+1% Bovine Serum Albumin (BSA, Roche, Cat #10735086001)+0.02% Sodium Azide (Bio-World, Cat #41920044-3). Plates were centrifuged, supernatant was removed, cells were resuspended in 50 μL of human Fc Block (BD, Cat #564220, diluted 1:100 in FACS buffer) and 50 μL of viability stain TO-PRO-3 Iodide (Thermo Fisher, Cat #T3605, diluted 1: 25,000 in FACS buffer), and incubated for 15 min at 4° C. Plates were washed three times with FACS buffer. […] Antibody binding to viable cells (TO-PRO-3 negative) was analyzed by flow cytometry on a FACSCelesta™ (BD biosciences) and data were processed using FlowJo_v10.8.1 (FlowJo LLC). Geomean fluorescence intensity, gMFI, was determined and visualized using GraphPad Prism.

[2] = target: T1, human FAPα (Fibroblast activation …); assay: flow cytometry, CAFs, n = 3
Protocol: as §1, §2

[3] = target: T2, human DR4 with death domain deletion on ExpiCHO-S cells (human); assay: flow cytometry, ExpiCHO-S cells expressing human DR4, n = 1
Protocol: (§3) Binding of BisG1-FAPα-FERL/DR4-FERR, BisG1-DR4-FEAL/b12-FEAR and IgG1-DR4-FERR to DR4 of various species commonly used for nonclinical toxicology studies was assessed by flow cytometry using ExpiCHO-S cells transiently expressing DR4 from different animal species. In contrast to other species, rodents only express one DR which has highest homology with human DR5. Therefore, ExpiCHO-S cells transiently expressing rat and mouse DR protein were used instead. All DR constructs lack the intracellular DD to avoid apoptosis of transfected cells upon DR(4) activation. IgG1-b12 was used as negative control.

[4] = target: T2, human DR4 with death domain deletion on …; assay: flow cytometry, ExpiCHO-S cells expressing human DR4, n = 2
Protocol: as §3

[5] = target: T2, human DR4 with death domain deletion on …; assay: flow cytometry, ExpiCHO-S cells expressing human DR4, n = 3
Protocol: as §3

[6] = target: T2, human DR4 with death domain deletion on …; assay: flow cytometry, ExpiCHO-S cells expressing human DR4, average ± SEM

B1: BisG1-FAPα-FERL/DR4-FERR (bispecific antibody, human IgG1, kappa, lambda)
heavy 1: EVQLLESGGGLVQPGGSPRLSCEASGFTFSSYALSWVRQAPGKGLEWVSAISGSGGGRYYADSVKGRFTISRDNSKNTLFLQMNSLRAEDTAVYYCAKEGYSSSGTYWDHWGQGTLVTVSSASTKGPSVFPLAPSSKSTSGGTAALGCLVKDYFPEPVTVSWNSGALTSGVHTFPAVLQSSGLYSLSSVVTVPSSSLGTQTYICNVNHKPSNTKVDKRVEPKSCDKTHTCPPCPAPEFERGPSVFLFPPKPKDTLMISRTPEVTCVVVDVSHEDPEVKFNWYVDGVEVHNAKTKPREEQYNSTYRVVSVLTVLHQDWLNGKEYKCKVSNKALPAPIEKTISKAKGQPREPQVYTLPPSREEMTKNQVSLTCLVKGFYPSDIAVEWESNGQPENNYKTTPPVLDSDGSFLLYSKLTVDKSRWQQGNVFSCSVMHEALHNHYTQKSLSLSPG
light 1: AIQMTQSPSSVSASVGDRVTITCRASQGVSSWLAWYQQKPGRAPKLLIYVASTLQSGVPSRFSGSGSGTDFTLTINSLQPEDFATYYCQQANSFPPTFGQGTRLEMKRTVAAPSVFIFPPSDEQLKSGTASVVCLLNNFYPREAKVQWKVDNALQSGNSQESVTEQDSKDSTYSLSSTLTLSKADYEKHKVYACEVTHQGLSSPVTKSFNRGEC
heavy 2: QVQLQESGPGLVKPSGTLSLTCAVSGGSISSYSWWSWIRQPPGKGLEWIGELYHSGSTNYNPSLKSRVTISVDKSKNQFSLKLRSVTAADTAVYYCVRGVATIDYWGQGTLVTVSSASTKGPSVFPLAPSSKSTSGGTAALGCLVKDYFPEPVTVSWNSGALTSGVHTFPAVLQSSGLYSLSSVVTVPSSSLGTQTYICNVNHKPSNTKVDKRVEPKSCDKTHTCPPCPAPEFERGPSVFLFPPKPKDTLMISRTPEVTCVVVDVSHEDPEVKFNWYVDGVEVHNAKTKPREEQYNSTYRVVSVLTVLHQDWLNGKEYKCKVSNKALPAPIEKTISKAKGQPREPQVYTLPPSREEMTKNQVSLTCLVKGFYPSDIAVEWESNGQPENNYKTTPPVLDSDGSFFLYSRLTVDKSRWQQGNVFSCSVMHEALHNHYTQKSLSLSPG
light 2: QSALTQPPSASGSPGQSVTISCTGTSSDVGGYNFVSWYQQDPGKAPKLLIYEVTKRPSGVPDRFSGSKSGNTASLTVSGLQAEDEADYYCSSYAGSNNVMFGGGTKLTVLGQPKAAPSVTLFPPSSEELQANKATLVCLISDFYPGAVTVAWKADSSPVKAGVETTTPSKQSNNKYAASSYLSLTPEQWKSHRSYSCQVTHEGSTVEKTVAPTECS
notes: Human IgG1 bispecific made by controlled Fab-arm exchange of IgG1-FAPα-FERL and IgG1-DR4-FERR; monovalent for FAPα and for DR4; also called GEN1057
EC50 [1]: 0.159 µg/mL | EC50 [2]: 0.211 µg/mL | EC50 [3]: 1 µg/mL | EC50 [4]: 0.38 µg/mL | EC50 [5]: 0.11 µg/mL | EC50 [6]: 0.5 µg/mL

B2: BisG1-FAPα-FERL/b12-FERR (bispecific antibody, human IgG1, kappa)
heavy 1: EVQLLESGGGLVQPGGSPRLSCEASGFTFSSYALSWVRQAPGKGLEWVSAISGSGGGRYYADSVKGRFTISRDNSKNTLFLQMNSLRAEDTAVYYCAKEGYSSSGTYWDHWGQGTLVTVSSASTKGPSVFPLAPSSKSTSGGTAALGCLVKDYFPEPVTVSWNSGALTSGVHTFPAVLQSSGLYSLSSVVTVPSSSLGTQTYICNVNHKPSNTKVDKRVEPKSCDKTHTCPPCPAPEFERGPSVFLFPPKPKDTLMISRTPEVTCVVVDVSHEDPEVKFNWYVDGVEVHNAKTKPREEQYNSTYRVVSVLTVLHQDWLNGKEYKCKVSNKALPAPIEKTISKAKGQPREPQVYTLPPSREEMTKNQVSLTCLVKGFYPSDIAVEWESNGQPENNYKTTPPVLDSDGSFLLYSKLTVDKSRWQQGNVFSCSVMHEALHNHYTQKSLSLSPG
light 1: AIQMTQSPSSVSASVGDRVTITCRASQGVSSWLAWYQQKPGRAPKLLIYVASTLQSGVPSRFSGSGSGTDFTLTINSLQPEDFATYYCQQANSFPPTFGQGTRLEMKRTVAAPSVFIFPPSDEQLKSGTASVVCLLNNFYPREAKVQWKVDNALQSGNSQESVTEQDSKDSTYSLSSTLTLSKADYEKHKVYACEVTHQGLSSPVTKSFNRGEC
heavy 2: QVQLVQSGAEVKKPGASVKVSCQASGYRFSNFVIHWVRQAPGQRFEWMGWINPYNGNKEFSAKFQDRVTFTADTSANTAYMELRSLRSADTAVYYCARVGPYSWDDSPQDNYYMDVWGKGTTVIVSSASTKGPSVFPLAPSSKSTSGGTAALGCLVKDYFPEPVTVSWNSGALTSGVHTFPAVLQSSGLYSLSSVVTVPSSSLGTQTYICNVNHKPSNTKVDKRVEPKSCDKTHTCPPCPAPEFERGPSVFLFPPKPKDTLMISRTPEVTCVVVDVSHEDPEVKFNWYVDGVEVHNAKTKPREEQYNSTYRVVSVLTVLHQDWLNGKEYKCKVSNKALPAPIEKTISKAKGQPREPQVYTLPPSREEMTKNQVSLTCLVKGFYPSDIAVEWESNGQPENNYKTTPPVLDSDGSFFLYSRLTVDKSRWQQGNVFSCSVMHEALHNHYTQKSLSLSPG
light 2: EIVLTQSPGTLSLSPGERATFSCRSSHSIRSRRVAWYQHKPGQAPRLVIHGVSNRASGISDRFSGSGSGTDFTLTITRVEPEDFALYYCQVYGASSYTFGQGTKLERKRTVAAPSVFIFPPSDEQLKSGTASVVCLLNNFYPREAKVQWKVDNALQSGNSQESVTEQDSKDSTYSLSSTLTLSKADYEKHKVYACEVTHQGLSSPVTKSFNRGEC
EC50 [1]: 0.183 µg/mL | EC50 [2]: 0.218 µg/mL
